Test: soluble on expression in E. coli; label from the status in PepcDB or PDB records

Sequence	soluble on expression in E. coli
MGSDKIHHHHHHMNKELASKFLSSIKHEREQDIQTTSRLLTTLSIQQLVQNGLAINNIHLENIRSGLIGKLYMELGPNLAVNDKIQRGDIKVGDIVLVRPAKTKVNTKTKPKVKKVSEDSNGEQAECSGVVYKMSDTQITIALEESQDVIATTFYSYSKLYILKTTNVVTYNRMESTMRKLSEISSPIQDKIIQYLVNERPFIPNTNSFQNIKSFLNPNLNDSQKTAINFAINNDLTIIHGPPGTGKTFTLIELIQQLLIKNPEERILICGPSNISVDTILERLTPLVPNNLLLRIGHPARLLDSNKRHSLDILSKKNTIVKDISQEIDKLIQENKKLKNYKQRKENWNEIKLLRKDLKKREFKTIKDLIIQSRIVVTTLHGSSSRELCSLYRDDPNFQLFDTLIIDEVSQAMEPQCWIPLIAHQNQFHKLVLAGDNKQLPPTIKTEDDKNVIHNLETTLFDRIIKIFPKRDMVKFLNVQYRMNQKIMEFPSHSMYNGKLLADATVANRLLIDLPTVDATPSEDDDDTKIPLIWYDTQGDEFQETADEATILGSKYNEGEIAIVKEHIENLRSFNVPENSIGVISPYNAQVSHLKKLIHDELKLTDIEISTVDGFQGREKDVIILSLVRSNEKFEVGFLKEERRLNVAMTRPRRQLVVVGNIEVLQRCGNKYLKSWSEWCEENADVRYPNIDDYL	not soluble
MAHHHHHHMQSNSAPVSYGAQLRASMQTLRANDTQFEQFTRGLGAVLQQWTALQLVAQHCDSRAPAVLYEDLCAWHKHDGEVYVDDMEVYFEEFFDNIRSARIEDDSMQEVGTVLHDMYCRCCLNDFSLVEHYLETLAMYVQTNPVAMSVNGGTNENLEDDAEEDAELGGDAVCEEGVDNEDEESEPMQAPTPKAPQQPPQPPRHQQQPQRKKRKNTSVRSRDGWNIVQ	not soluble
MAVSLFKQLQIVWDYHLVNQEIRKSDAIFVLCSYDLRVAEHAAQLYLDGYAPLLIFSGAQGRATEGLFTLSEAETFANVAKDMGVPSSAIIVETKATNTGENIFFTQALLKERNISVSSLILVQKPYMERRLLATFLKNWNDIEFCISSPNISFINYPTDEITFDHIASIILGELHRLKVYPTLGYQEAQEIPDEVWQAFENLTQLGFDEYLLTNDNLEHHHHHH	not soluble
ASMTGGQQMGRGSASLPACPEESPLLVGPMLIEFNMPVDLELVAKQNPNVKMGGRYAPRDCVSPHKVAIIIPFRNRQEHLKYWLYYLHPVLQRQQLDYGIYVINQAGDTIFNRAKLLNVGFQEALKDYDYTCFVFSDVDLIPMNDHNAYRCFSQPRHISVAMDKFGFSLPYVQYFGGVSALSKQQFLTINGFPNNYWGWGGEDDDIFNRLVFRGMSISRPNAVVGTTRHIRHSRDKKNEPNPQRFDRIAHTKETMLSDGLNSLTYQVLDVQRYPLYTQITVDIGTPS	soluble
MGSDKIHHHHHHVTAPAFLPVILAGGSGERFWPLSRKHRPKQFLTLDETGRSLLQATSDRLGRLSGSPEQVMVVTGTEYRTQVLEQLPDMPIEHLIVEPVARDTAPAVLYAALRVAQENPQAVMGVFPADHRITDAQAFGRVVRRAIEVAEITGGLVTLGVTPTFPATGYGYIQRGEQLLGGELPAFRVSRFTEKPDAETAQLFLADGRYTWNSGMFIWRVQAILAAFEQYQPDMYAQLSAAVRGSPRQVRAVFPELQKISIDYAILEKSDQVVVIPAEFGWDDLGDWNALERLLKGEGQNVAVGRHVGLDTDGAILYTTGGDGLIATIGLEDVVVVRTDEVTLVVRKDRTQDIKKVVQQLKSHPELERFA	not soluble
MKGTQMLALNKKCWDIVAPYFFQVDCLPKYGPYTASEDEIHLFDSIKGKKVLDIGCGSGHSLQYMAEHGAEELWGLDLSSTQIETAHETLQSWNPKLICGAMEEERDIPKGYFDIVYSIYALGWTSDLRKTLELIYSYVKPGGSFIFSWEHPVYSNLMYGTEEIAFSSSYHEETPITFETFKGEDVQATLYKRKMSTYINELNRVGFTIERIEEPLEHHHHHH	not soluble
AIAAYRGLHALSQPAYLEDFINSVSNLPQELRDKYGRMGELDALVQRLKNEADALVRELLRKPGSSDPDRGRDTTSLQQMGTKLEQLQAQCVKLNQEKLQLAETAYNTVDQHVRDLDTKLREYEAYLRREGQWPDDLQSLVVNTDHTKMASMKNAAAAAAAAHTAAAPATTARSTQKAPSKGQRKSGEPSTLHIMDDMPIDPNEPRYCYCQNVSYGQMVACESGDCPYEWFHFECVGLTEPPKGEWICPDCRARTGRVR	soluble
MHHHHHHAMDTYKLFIVIGDRVVVVTTEAVDAATAEKVFKQYANDNGVDGEWTYDDAAKTFTVTE	soluble
MVFYLIGLGLGDVEDITVKGLNIVKNCARVHLEAYTSILCYGLDKTNLEKFYGREIIEADRTVVEQESDAILNGADKEDVALLVVGDPFGATTHADLVLRAKQQNIPVKVIHNASIMNAVGCCGLQLYNFGETVSIVMWTDEWQPESYYDKIALNRKRGMHTLCLLDIKTKEQTVENMMRGRKIFEPARYQKCSEAARQLLTIYERRKAKGEECAYDENTMVVGLARVGWDNQKIVYASMKDMSEMEMGEPLHSLIIPGETHPLEVDMLETFRP	not soluble
GSMAEGRGSRERPDVETQKTELGALMGTTLQRGAQWYLIDSRWFKQWKKYVGFDSWDMYNVGEHNLFPGPIDNSGLFSDPESQTLKEHLIDELDYVLVPAEAWNKLLNWYGCVEGQQPIVRKVVEHGLFVKHCKVEVYLLELKLCENSDPTNVLSCHFSKADTIATIEKEMRKLFNIPAERETRLWNKYMSNTYEQLSKLDNTIQDAGLYQGQVLVIEPQNEDGTWPRQSL	soluble
MVTKFLIFVSENQQLTSKFNLVTRQNADLKIGLRGVLFSIQGLREELSVAKQRIEEMKEDSFFESMPKLEREAPAFMDSPAETSSPDVEMEDVVYEEVVKETEVANF	not soluble
MAHHHHHHMGFPAVPFVEDKNDAEILRDEADDEFASYFKEGRKPKILITTGEHPCFRTKLFVKEALWLFPNSIYRPRKKYNLKEITQFCINREFTDLIVVTDRLKEPYNLIISHLPEGPTAMFRVSNFMTHAQLKDPAPRTEHYPELIFKNFDTRLGRRINRLLECLFPATRDYEGRAVATFHNQRDYIFMRTHRYIFDSLDAVRIQEMGPRFTLRLLSLQSGTFDTQFGEYEWFRKKEHDDDKLEWYL	soluble
MHGEETPRTDLTLFSEKMQELKSRIASVIVGQERTVDLVLTAILANGHVLIEGVPGVAKTLLARLTARLIDADFSRVQFTPDLMPSDVLGTTVFNMKTNEFDFHRGPVFANIILVDEINRAPAKTQSALFEVMEERQASIDGTTYRMGELYTILATQNPVEQEGTYKLPEAQLDRFLMKITMDYPSLDEEINILERHHTNAALVKLEEIQPVITREELLSLRRLTEKVFVDRTLLQYIALIAQQTRTSKAVYLGASPRASVAMLQASKAYALLQGRDFVTPEDIKFVAPYVLQHRLILTAEAEMEGYSPVKVTQRLIDKVEVPKLEHHHHHH	soluble
MTRSALKPFKNKRVMVTGRIQRVLFKNYLDRHSTFKPNVRILLKDVFVSGVSIDHLWLYETNKYYALAMELIHQRVKFSANVVPYYKINRNNNLFVQDYGIKRKGRLITEEAYNQNNQYQDKIYEKLPDIDFRLEDFYSKENLEHHHHHH	not soluble
MAEIVLTQSPGTQSLSPGERATLSCRASQSVGNNKLAWYQQRPGQAPRLLIYGASSRPSGVADRFSGSGSGTDFTLTISRLEPEDFAVYYCQQYGQSLSTFGQGTKVEVKLVPR	soluble
NIYDVAHDLDKGIRETPEFISLQDAYREVNENADAKAKFERFRDVQVTIQEKQMTGQEIDDETVNVAQQVAQEVQENELIVKLMEKEQAMSTIINDLNRIIMTPLQDLYNVA	not soluble
MGSDKIHHHHHHMPLSPQQDILEIDQDASVLRFAPQAGGRLMSWTIDGEAVIHWPEHADWSQPARIRGGNPLLFPFLGRHRVDGKIGYWRDAKGTVRELPMHGFARDLPFEAHADVHGAGLRMILTDSTATRHGYPFGFRLETAYCLADARTLDVTFTTTNTGDSRLPSRLPYYAGHHFYFTLPHTQRAATSLELPRTERRHQQDDGSISAAEPGEARYTLDEARIQDRFHCLAGAPDRPVRLVAPGLDRIVTIDLQRPDSIPWYAVTTWTEAAESDFYCVEPWLGLPDAIHNGMGLRWLEPGQTEVAALRISVDKLG	not soluble
MSWKFEEKSPIYAQIAQHVMMQIISQEIKSGDQLPTVREYAEIAGVNPNTMQRAFTELEREGMVYSQRTAGRFVTDDQKLIARKRRELAISELESFITNMTKMGFSHTEIIPVLTSFLKEDSQ	not soluble
MRTLLDLDPKGKRVLVRVDYNVPVQDGKVQDETRILESLPTLRHLLAGGASLVLLSHLGRPKGPDPKYSLAPVGEALRAHLPEARFAPFPPGSEEARREAEALRPGEVLLLENVRFEPGEEKNDPELSARYARLGEAFVLDAFGSAHRAHASVVGVARLLPAYAGFLMEKEVRALSRLLKDPERPYAVVLGGAKVSDKIGVIESLLPRIDRLLIGGAMAFTFLKALGGEVGRSLVEEDRLDLAKDLLGRAEALGVRVYLPEDVVAAERIEAGVETRVFPARAIPVPYMGLDIGPKTREAFARALEGARTVFWNGPMGVFEVPPFDEGTLAVGQAIAALEGAFTVVGGGDSVAAVNRLGLKERFGHVSTGGGASLEFLEKGTLPGLEVLEG	soluble
SARLPKLAVFDLDYTLWPFWVDTHVDPPFHKSSDGTVRDRRGQDVRLYPEVPEVLKRLQSLGVPGAAASRTSEIEGANQLLELFDLFRCYLHSHPEWNESSNSKSRVRDICEGPNWAFEVQP	soluble
GREEAPNAEADILSCRLPGVVMTTSPIITNNSINIFVGPGTDISSLAPEFTLTPGATIDPPSGTARDFHSPQQYTVTAADGFWKKKYTVSVIDTELATIYNFEDTLGGQKYYIFVEREGEKVVMEWASGNAGYAMTGVPKTADDYPTFQFANGKTGKCLSLVTRSTGFFGSIMGMPIAAGNLFIGSFDVGNAMSNPLKATKFGLPFRHIPTYLAGYYKYKAGDQFTEGGKPVSGKRDICDIYAIMYETSESVPTLDGTNAFTSPNLVSIARIDDAKETDEWTYFKLPFHMLSGKYIDKEKLTAGKYNVAIVFTSSLEGDHFNGAIGSTLLIDEVELIYRSED	soluble
MGSDKIHHHHHHACDNSDRIETETQANGVLLNFNASTIDATTTETRSFVPIEGFAKNEYIFGMSVTKDNASRGEIFEGSRNLKATMSRPSGDAPWNWEFSNNASGTVVTPRGPEGKPLRVIAYYPAIAGTENFTDGIPFDFTQTNNPQQKEILYNTNTSYTIPSSGGSDKVTIPLKFQHAYSWISIKVTKSVDKGSHKLSGVSIDNLSGGWIKNKGKINPATGMAMQGAIQGPIGEVRTAEVLDPSGDTATPIIYDFLVPAFMDRNVKDDDLVFTLIIDGKKEIFSLGREHLNNDGDTYGFKQGYVNTYNVEFNNSSLNMRLLNWTSTRIDGDFGQNVTNPTNYQEMSFYYAEDNGGWTTANGKVFPPKYKDLPAGDRRYYNYLTTVKYGGNGEYVPAKPVTDPPPPKGIIIEDDANVATQEPACRLFQMTTKDVSIEPVPWEDEMGQLVAKELCRKYNGGGFKDWRLPRASELRALLVYAIYGAGTKQFINLKLTNDVNREKLYWTGTEESEDKAWAMLYYDDNTLVGRGPNISAQDKSTRLSVRCIRQLQ	not soluble
ASRPHQWQTDEEGVRTGKCSFPVKYLGHVEVDESRGMHICEDAVKRLKATGKKAVKAVLWVSADGLRVVDEKTKDLIVDQTIEKVSFCAPDRNFDRAFSYICRDGTTRRWICHCFMAVKDTGERLSHAVGCAFAACLERKQKR	soluble

From the DeepSol protein solubility set
